In paper PMC11176775:
One block for each substance: values may come before it.

Key:
[1] = biological target: GST-tag APE1 full-length (apurinic/apyrimidinic-endonuclease 1) (UniProt P27695); test: SPR; GST-tag polβ or APE1 immobilised on CM5 chip (EDC/NHS), his-tag LIG1 or LIGIIIα passed as analyte; Biacore X-100, 25 °C; 10 mM Hepes pH 7.4, 150 mM NaCl, 3 mM EDTA, 0.005% surfactant P20; 1:1 (Langmuir) fit
[2] = biological target: GST-tag polβ full-length (DNA polymerase β, 1–335 amino acids) (UniProt P06746); test: as above
[3] = biological target: Polβ C-terminal (92–335 amino acids), as used in SPR (UniProt P06746); test: SPR; Supplementary Figures 2 and 3; partner immobilised on the CM5 chip not given; Biacore X-100, 25 °C; 10 mM Hepes pH 7.4, 150 mM NaCl, 3 mM EDTA, 0.005% surfactant P20; 1:1 (Langmuir) fit
[4] = biological target: GST-tag DNA polymerase β, full-length (1–335 amino acids) (UniProt P06746); test: SPR; Biacore X-100, 25 °C; GST-tag polβ or APE1 immobilised on CM5 chip (EDC/NHS, 10 mM sodium acetate pH 4.0), his-tag LIG1 or LIGIIIα proteins as analytes; 10 mM Hepes pH 7.4, 150 mM NaCl, 3 mM EDTA, 0.005% P20; 1:1 (Langmuir) model; polβ truncated mutants (Fig. S2) tested likewise, orientation not given
[5] = biological target: Apurinic/apyrimidinic-endonuclease 1 (UniProt P27695); test: as above
Apurinic/apyrimidinic-endonuclease 1, sequence (P27695 whole entry, the tested form may be a part): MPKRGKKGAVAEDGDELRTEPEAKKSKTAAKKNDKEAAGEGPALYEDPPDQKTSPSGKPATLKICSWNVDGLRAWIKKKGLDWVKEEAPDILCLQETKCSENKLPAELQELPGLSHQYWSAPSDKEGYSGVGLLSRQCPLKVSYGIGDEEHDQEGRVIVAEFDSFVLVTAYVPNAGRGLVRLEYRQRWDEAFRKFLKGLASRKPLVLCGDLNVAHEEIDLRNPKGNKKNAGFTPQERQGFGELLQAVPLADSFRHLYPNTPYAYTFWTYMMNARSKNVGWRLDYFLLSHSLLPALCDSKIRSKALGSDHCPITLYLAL

[6] = biological target: GST-tag polβ full-length (DNA polymerase β, 1–335 amino acids) (UniProt P06746); test: SPR; Supplementary Figures 2 and 3; partner immobilised on the CM5 chip not given; Biacore X-100, 25 °C; 10 mM Hepes pH 7.4, 150 mM NaCl, 3 mM EDTA, 0.005% surfactant P20; 1:1 (Langmuir) fit
[7] = biological target: Polβ C-terminal (92–335 amino acids) (UniProt P06746); test: SPR; Biacore X-100, 25 °C; GST-tag polβ or APE1 immobilised on CM5 chip (EDC/NHS, 10 mM sodium acetate pH 4.0), his-tag LIG1 or LIGIIIα proteins as analytes; 10 mM Hepes pH 7.4, 150 mM NaCl, 3 mM EDTA, 0.005% P20; 1:1 (Langmuir) model; polβ truncated mutants (Fig. S2) tested likewise, orientation not given
[8] = biological target: Polβ N-terminal (1–92 amino acids) (UniProt P06746); test: as above
[9] = biological target: His-tag LIGIIIα full-length (DNA ligase IIIα, 1–922 amino acids); test: SPR; Supplementary Figures 2 and 3; partner immobilised on the CM5 chip not given; Biacore X-100, 25 °C; 10 mM Hepes pH 7.4, 150 mM NaCl, 3 mM EDTA, 0.005% surfactant P20; 1:1 (Langmuir) fit

GST-tag APE1 full-length (apurinic/apyrimidinic-endonuclease 1), sequence (P27695 whole entry, the tested form may be a part): as above
poly (ADP-ribose) polymerase 1 (PARP1), his-tag, sequence (P09874 whole entry): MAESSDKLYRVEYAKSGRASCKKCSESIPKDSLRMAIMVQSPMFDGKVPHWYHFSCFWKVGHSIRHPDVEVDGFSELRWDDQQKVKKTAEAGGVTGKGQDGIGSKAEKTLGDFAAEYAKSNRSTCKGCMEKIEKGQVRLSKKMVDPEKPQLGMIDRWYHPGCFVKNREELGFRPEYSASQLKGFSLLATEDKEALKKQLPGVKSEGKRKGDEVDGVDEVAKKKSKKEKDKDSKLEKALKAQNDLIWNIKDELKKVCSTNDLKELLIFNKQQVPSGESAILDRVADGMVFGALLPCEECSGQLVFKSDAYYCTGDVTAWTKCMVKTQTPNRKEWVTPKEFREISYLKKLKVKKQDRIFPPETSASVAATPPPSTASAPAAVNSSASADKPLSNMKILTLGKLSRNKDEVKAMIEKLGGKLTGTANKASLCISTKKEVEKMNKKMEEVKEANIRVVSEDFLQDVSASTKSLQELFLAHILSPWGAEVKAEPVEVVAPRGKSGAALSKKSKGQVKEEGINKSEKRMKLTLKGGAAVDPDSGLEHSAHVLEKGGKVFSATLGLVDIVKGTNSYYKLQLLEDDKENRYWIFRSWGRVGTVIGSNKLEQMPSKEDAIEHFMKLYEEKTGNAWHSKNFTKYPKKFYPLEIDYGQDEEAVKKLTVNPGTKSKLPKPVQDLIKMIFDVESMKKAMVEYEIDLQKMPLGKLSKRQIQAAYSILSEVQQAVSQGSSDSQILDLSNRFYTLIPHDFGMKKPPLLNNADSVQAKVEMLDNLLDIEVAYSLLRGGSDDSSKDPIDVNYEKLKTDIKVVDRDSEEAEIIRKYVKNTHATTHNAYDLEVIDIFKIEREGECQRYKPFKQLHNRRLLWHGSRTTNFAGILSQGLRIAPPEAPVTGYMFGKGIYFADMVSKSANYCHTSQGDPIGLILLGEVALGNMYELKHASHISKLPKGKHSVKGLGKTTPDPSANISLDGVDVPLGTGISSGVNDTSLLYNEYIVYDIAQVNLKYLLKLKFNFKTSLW
X-ray repair crosscomplementing protein 1 (XRCC1), his-tag, sequence (P18887 whole entry): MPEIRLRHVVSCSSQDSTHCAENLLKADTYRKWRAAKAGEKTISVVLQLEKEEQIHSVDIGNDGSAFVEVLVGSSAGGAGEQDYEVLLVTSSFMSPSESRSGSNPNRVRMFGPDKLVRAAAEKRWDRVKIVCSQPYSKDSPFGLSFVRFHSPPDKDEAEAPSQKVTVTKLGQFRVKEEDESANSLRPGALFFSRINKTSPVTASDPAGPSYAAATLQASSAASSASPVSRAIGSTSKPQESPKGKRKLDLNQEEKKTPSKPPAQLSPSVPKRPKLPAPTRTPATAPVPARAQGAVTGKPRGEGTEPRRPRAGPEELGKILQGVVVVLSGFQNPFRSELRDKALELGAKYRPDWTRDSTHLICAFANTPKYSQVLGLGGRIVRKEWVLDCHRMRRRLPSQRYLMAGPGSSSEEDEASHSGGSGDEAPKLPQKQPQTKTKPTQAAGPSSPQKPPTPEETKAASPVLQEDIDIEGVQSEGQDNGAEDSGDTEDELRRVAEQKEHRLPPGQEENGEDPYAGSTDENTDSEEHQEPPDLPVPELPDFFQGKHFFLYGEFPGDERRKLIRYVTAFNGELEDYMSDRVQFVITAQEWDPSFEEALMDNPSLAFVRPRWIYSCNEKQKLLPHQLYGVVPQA

Substance: LIGIIIα△BRCT (1–755 amino acids), LIGIIIα lacking the BRCT domain (domain or fragment)
Kd [1]: 1.05 µM

Substance: His-tag LIG1 full-length (DNA ligase 1, 1–919 amino acids) (from UniProt P18858 1-919) (enzyme)
Kd [3]: 0.74 µM

Substance: LIGIIIα▵BRCT (1–755 amino acids) (domain or fragment)
Kd [4]: 0.52 µM
fold difference in KD against LIGIIIα▵ZnF [5]: 1000 fold

Substance: LIGIIIα▵ZnF (170–922 amino acids) (domain or fragment)
Kd [4]: 0.03 µM

Further lines, results first:

Kd [2]: 0.027 µM
Kd [1]: 0.0049 µM
Substance: LIGIIIα△ZnF (170–922 amino acids), LIGIIIα lacking the zinc-finger domain (domain or fragment)

Kd [3]: 0.5 µM
Substance: His-tag LIGIIIα full-length (DNA ligase IIIα, 1–922 amino acids) (enzyme)

Kd [6]: 0.01 µM
Substance: X-ray repair crosscomplementing protein 1 (XRCC1), his-tag (from UniProt P18887 1-633) (natural protein; other documents disagree on this pair)

Kd [4]: 0.007 µM
fold reduction of binding against the full-length proteins [7]: 500 fold
Kd [5]: 0.0033 µM
Kd [8]: 0.032 µM
Substance: DNA ligase IIIα full-length (1–922 amino acids) (enzyme)

Kd [9]: 0.02 µM
Substance: poly (ADP-ribose) polymerase 1 (PARP1), his-tag (from UniProt P09874 1-1014) (enzyme)
